Measurements from publication PMC11254524 (Cell Insight, 2024).

Biological target: GST-tagged AKT1 (UniProt P31749 1-480)
Test: pull-down

GST-tagged AKT1, sequence (P31749 whole entry): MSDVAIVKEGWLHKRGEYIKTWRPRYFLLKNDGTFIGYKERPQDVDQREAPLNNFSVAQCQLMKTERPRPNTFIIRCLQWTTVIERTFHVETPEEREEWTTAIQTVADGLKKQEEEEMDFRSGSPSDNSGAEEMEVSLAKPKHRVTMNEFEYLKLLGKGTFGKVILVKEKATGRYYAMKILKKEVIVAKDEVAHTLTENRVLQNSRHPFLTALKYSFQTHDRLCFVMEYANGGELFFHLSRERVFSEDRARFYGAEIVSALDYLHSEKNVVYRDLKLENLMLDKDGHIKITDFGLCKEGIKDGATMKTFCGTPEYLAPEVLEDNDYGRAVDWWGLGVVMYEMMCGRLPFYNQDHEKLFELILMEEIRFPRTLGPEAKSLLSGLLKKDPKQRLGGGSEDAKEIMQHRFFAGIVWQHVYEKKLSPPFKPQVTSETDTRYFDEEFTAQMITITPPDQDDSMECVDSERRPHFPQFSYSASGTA

B1: His-tagged SFN (natural protein, UniProt P31947 1-248, looked up)
chain: MERASLIQKAKLAEQAERYEDMAAFMKGAVEKGEELSCEERNLLSVAYKNVVGGQRAAWRVLSSIEQKSNEEGSEEKGPEVREYREKVETELQGVCDTVLGLLDSHLIKEAGDAESRVFYLKMKGDYYRYLAEVATGDDKKRIIDSARSAYQEAMDISKKEMPPTNPIRLGLALNFSVFHYEIANSPEEAISLAKTTFDEAMADLHTLSEDSYKDSTLIMQLLRDNLTLWTADNAGEEGGEAPQEPQS
  binding result: binds
